According to the nanobody polyreactivity screen of Harvey et al. (2022):

Assay: yeast display, Sf9 membrane polyspecificity reagent, FACS + sequencing; frameworks hold sequencing errors
Outline: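 After 36–48 hours of galactose induction, yeast (Saccharomyces cerevisiae BJ5465) displaying a synthetic nanobody library were stained at 4 °C for 1 hour with 10% biotinylated, detergent-solubilized Sf9 membrane reagent. Streptavidin microbeads enriched the stained cells before FACS sorting into low and high (top ~1%) gates on anti-HA and streptavidin fluorescence. Each clone's polyreactivity label reflects its gate of origin.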

Sequence	polyreactivity (PSR sort gate)
QVQIVESGGGLVQAAGSLRLSCPASGRIFSDYAMGWYRQAPGKERELVAVITRGGDNTHYADSVKGRFTISRDNAKNTVYFQMNSLKPEDTAVYYCAAGFVYFRLRRYFWRDYWGQGTQVTVSS	low polyreactivity
QVQLVESGGGLVQAGGSLRLSCAASGSILDPNAMGWYRQAPGKERELVASISRGDNTYYADSVKGRFTISRDNAKNTVYFQMNSLKPEDTAVYDCAADYSWVVWHDYWGQGTQVTVSS	low polyreactivity
QVQLVESGGGLVQAGVSLRLSCAASVITFVYYTMGWYRQAPGKERELVAAISQSAVNTYYADSVKGRFTISRDNAKNTVYLQMNSLKPEVTAVYYCNARFRATFTSYGTDYRRRFDYWGQGTQVTVSS	high polyreactivity
QVQLVESGGGLVQAGGSLRISCAASGGIFNYYTMGWYRQAPGKERELVAAINSSGGNTHYADSVKGRFTISRDNAKNTVYLQMNSLKPEDTAVYYCNADARSVWFYRVDYWGQGTQVTVSS	low polyreactivity
QVQLVESGGGLVQAGGSLRLSCAASGRIYRYAIGWYRQAPGKERELVASISYSGGSTYYADSVNGRFTISRDNAKNTVYLQMNSLKPEDTAVYYCAARTRHVHYGDWGQGTQVTVSS	high polyreactivity
QVQLVESVGGLVQAGGSLRLSCAASGRTFSTKAMGWYRQAPGKERELVAVIPSSGVRTYYADSVKGRFTISRDNAKNTVYLQKNSLKPEDTAVYYCAKPYGYRLDYWGQGTQVTVSS	high polyreactivity
QVQLVQSRGGLVQAGGSLRLSCAASGYIFWYYVKGWNRQAPGKERELVASITIGGGRTYYADSVKGRFTISRDFAKNSVYLQMNCMKPEDTAVYYCAAVTTPYNSDFDYWGQGTQVTVSS	low polyreactivity
QVQLVESGGGLVQAGGSLRLSCAASGIIFGYYAMGWYRQAPGKERELVAAISRSGGRTYYADSVKGRFTISRDNAKNTVYLQMNSLKPEDTAVYYCATVTNSKRGFDYWGQGTQVTVLS	high polyreactivity
QVQLVESGGGLVQAGGSLRLSCAASAFTFGYYAMGWYIQAPGKERELVAAISSGGNTNYADSVKGRFTISRDNAKNTVYLQMNSLKPEDTAVYYCNRRSWRYYKTYSAFNYWGQGSQVTVSS	high polyreactivity
QVQLVESGGVLVQAGGSLRLSCAASGRILFSYGMGWYRQATGKERELVARISWSGGNTHYADSVKGRFTISRDNAKNTVYLQMNSLKPEDTAVYYCNAYYTYWYPRYDYWGQGTQVTVSS	low polyreactivity
QVQLVESGGGLVQAGGSLRLSCAASGSIIWLYAMGWYRQAPGKERELVAAISSGGSTYYADSVKGRFTISRDNAKNTVYLQMNSLKPEDTAVYYCAADYWSQSDWWDLTEYEYWGLGTQVTVSS	high polyreactivity
QVQLVESGVGVVQAGGSLRLSCAASGRIFYGYAMGWYRQAPGKERELVAAISRGGTRTFYADSVKGRFTISRDNAKNTVYVQMNSLKPEDTAVYYCAARKRDFYSGYEYYYWGQGTQVTVSS	high polyreactivity
QVQLVESGGGLVQAGGSLRLSCAASGRTFYRYAMGWYRQAPGKERELVAAISGSGTSTSYADSVKGRFTISRDNAKNTVYLQMNSLKPEDTAVYYCAATYYVYYYSRYYYWGQGTQVTVSS	high polyreactivity
QVQLVESGGGLVQAGGSLRLSCAASGRTFYIYAMGWYRQAPGKERELVAAITSVGSTNYADSVKGRFTISRDNAKNTVYLQMNSLKPEDTAVYYCAAASTEGTSGDYDYWGQGTQVTVSS	low polyreactivity
QVQLVESGGGLVQAGGSLRLSCAASGSIFFRYALAWYRQAPGKERELVASITSGGSTYYADSVKGRFTISRDNAKNTVYLQMNSLKPEDTAVYYCNALPYRYRRYDYWGQGTQVTVSS	low polyreactivity
QVQLVESGGGLVQAGGSLRLSCAASGRTFGNNAMGWSRPAPGKERELVAAITASGGRTYYADSVKGRFTISRDNAKTTVYLQMNSLKPEDTAVYYCADGGPRVNGYGGYYWGQGTQVTVSS	high polyreactivity
QVQLVESGGGLVQAGGSLRLSCAASGLIFNLNAMGWYSPAPGKEREFVATITGIGGSTYYADSVKGRFTISRDNAKNTVYLQMNSLKPEDTAVYYCAADAWFVPYNYWGQGTQVTVSS	low polyreactivity
QVQLVESGGGLVQAGGSLRLSCAASGRTFRHYAMAWYRQAPGKERELVASIRWNGASTNYADSVKGRFTISRDNAKNTVYLQMNSLKPEDTAVYYCNARYLFYSGYVYWGQGTQVTVSS	high polyreactivity
QVQLVESGGGLVQAGGSLRLSCAASGSTLSLYAMGWSRQAPGKERELVAAITSSGGTYYADSVKGRFTISRDNAKNTVYLQMNSLKPEDTADYYCARSRYRAQGKFDYWGQGTQVTVSS	high polyreactivity
QVQLVESGGGLVQAGGRLRLSCAASGFTFTPYAMGWYRQAPGTERELVAAISWGDGSTYYADSVKGRFTISRDNAKNTVYLQMNSLKPEDTAVYYCAAYRGPRIYRYDYWGQGTQVTVSS	high polyreactivity
QVQLVESGGGLVQAGGSLRLSCAASGSTSRKYTMGWYRQAPGKERELVATISWSGGSTNYADSVKGRFTISRDNAKNTVYLQMNSLKPEDTAVYYCNAYVSPRYRGSRYYYWGQGTQVTVSS	high polyreactivity
HVQLQESGGGLVQAGGSLRLSCAASGNISYSRNMGWYRQAPGKERELVAAIDRGAITYYADSVKGRFTISRDNAKNTVYLQIYSLKPEDTAVYYCAAEYHDRWDHRYWGQGTQVTVSS	high polyreactivity

Sequence	polyreactivity (PSR sort gate)
QVQLVESGGGLVQAGGSLRLSCAASGITFAQYAMGWYRQAPGKEREVVAGITRSGGSTHYADSVKGRFTISRDNAKNTVYLQMNSLKPEDTAVYYCNARYPYRGKRKPSDYWGQGTQVTVSS	high polyreactivity
QVQLVESGGGVVQAGGSLRLSCAASGSTLVVNGLGWYRQAPGKDRELVAAISWSGGTTYYADSVKGRFTISRDNAKNTVDLQMNSLKPEDTAVYYCAADSYTEVDYWGQGTQVTVSS	low polyreactivity
QVQLVESGGGLVQAGGSLRLSCAASGRTLRHYAMGWYRQAPGKERELVAAISSTGSSTYYADSVKGRFTISRDNAKNTVYLQMNCLKPEDTAVYYCNAGKKYVDYGVLSSRYYWGQGTQVTVSS	low polyreactivity
QVQLVESGGGLVQAGGSLRLSCAASGFIFGYYAMGWYRQAPGKERELVAAISWSGGSTYYADSVKGRFTISRDKAKNTVYLQMNSLKPEDTAVYYCATASPSTRYGRLGDYWGQGTQVTVSS	low polyreactivity
QVQLVESGGGLVQAGGSLRLSSAASGSTFQDYDMRRSRQAPGKERELVAVISGSGGCTYYADSVKGRFTISRDNAKNTVYLQMNSLKPEDTAVYYCATDIKDGRPGDGVYDYGYWGQGTQVTVSS	low polyreactivity
QVQLVESGGGLVQAGGSLRLSCAASGLIFASYAMGWYRQAPGKERELVAAITSSGGSTYYADSVKGRFTISRDNAKNTVYLQMNSLKPEDTAVYYCAADIYTYNLFYHWSWLDYNYWGQGTQVTVSS	high polyreactivity
QVQLVESGGGLVQAGGSLRLSCAASGRTSSTYDMGWYRQAPGKERELVADITWSGGSTYYADSVKGRFTISRDNAKNTVYLQMNRLKPEDTAVYYCAAPFVKFVGSLVYAGYDSWGQGTQVTVSS	low polyreactivity
QVQLVESGGGLVQAGGSLRLSSAASGRTFSGYAMGWYRQAPGKERELVASISGSGSSTYYADSVKGRFTISRDNAMNTVYLQMNSLKPEDTAVYYCAKRSFYYRIQTGYNYWGQGTQVTVSS	high polyreactivity
QVQLVESGGGLVQAGGSLRLSCAASGRTSVVHAMGWYRQAPGKERELVAAITSGGSTHYADSVKGRFTISRDNAKNTVYLQMNSLKPEDTAVYSCNARDRRRTNLLDYWGQGTQVTVSS	low polyreactivity
QVQLVESGGGLDQAGGSLRLSCAASGYTYGTYDMRWYRQAPGKERELVAAISIGGSTNYADSVKGRFTISRDNAKNTVYLQMNSLKPEDTAVYYCAAEVNVGTLLLSVIVEDGDYWGQGTQVTVSS	low polyreactivity
QVQLVESGGGLVQAGGRLRLSCAASGRTLATFAMGWSRQAPGKERELVAAITFSGGGSTYYADSVKGRFTISRDNAKNTVYLQMKSLKPEDTADYYCAAGPYYSLFGYGSRDNYRYYYWGQGTQVTVSS	high polyreactivity
QVQLVESGGGLVQAGGSLRLSCAASGRTFYYNAMGWYRQAPGKERELVARISTIGGNTFYADSVKGRFTISRDNAKNTVYLQMNSLKPEDTAVYYCATTGGPSWRKYDYWGQGTQVTVSS	high polyreactivity
QVPLVESGVGLVHAGGSLRISCATSGITFAYYFMGWYRQAPGKERELVAAISWTGSSTYYADSVKWRFTISRDNAKNTVYLQMNSLKQEDTAVYYCAARQRYLYDYWGQGTQVNVSS	high polyreactivity
QVQLVESGGGLVQAGGSLRLSCAASGRTFIPYAMAWYRQAPGKEMELVAAISTTAGTTYYADSVKGRFTISRDNAKNTVYLQMNSLKPEDTAVYYCAAEGYGSFFVAMDYWGQGTQVTVSS	high polyreactivity
QVQLVESGGGLDQAGGSLRLSCAASGLTFYSNAMGWYRQAPGKERELVARISTGGSTYADSVKGRFTISRDNAKNTVYLQMNSLKPEDTAVNYCAKLPPRGIDDEYWGQGTQVTVSS	low polyreactivity
QVQLVESGGGLVQAGGSLRLSCAASGNIFAVNAMGWSRQAPGKERELVARIRYSTGRTYYADSVKGRFTISRDNAKNTVYLQMNSLKPEDTAVYYCATDYYTTRVPGGYDYWGHGTQVTVSS	high polyreactivity
QVQLVESGGGLVQAGGSLRLSCAASGITSPSYAMGWYRQAPGKERELVAAISTSGGDTYYADSVKGRFTISRDKAKNTVYLQMNSLKPEDTAVYYCAAPVPAYQYYYRLKSFGRRYDHWGQGTQVTVSS	low polyreactivity
QVQLGESGGGFFKAGASLRVICAASGRTFRRNAKGWYRQSPGTERELVAAITCGGSTNYADSVKGRFTISRDNENNTVYLQMNSLKPEDTAVYYCNADSVWGWYTYDYWGQGTQVTVSS	high polyreactivity
QVQLVESGGGLVQAGGSLRLSCAASGSIFDIYGMGWYRQAPGKERELVASISGGAGSTNYADSVKGRFTISRDHAKNTVYLQMNSLKPEDTAVYYCAAEVYVPDYFQHKFDVEYEYWGQGTQVTVSS	low polyreactivity
QVQLVESGGGLVQAGGSLRLSCAASGFIFSSNAMGWYRQAPGKERELVATISSDGSTNYADSVKGRFTISRDNAKNTVYLQMNSLKPEDTAVYYCAADLSLTIGTWTVLDTKYDYWGQGTQVTVSS	low polyreactivity
QVQLVESGGGLVQAGGSLRLSCAAYGITFKGNAMGWYRQAPGKERELVAAIRWRAGRTYYADSVKGRFTISRDNAKNTVYLQMNSLKPEDTAVYDCAATYSYLWPEYDYWGQGTQVTVSS	high polyreactivity
